The text below walks through data of patent US20220133863A1 (SHIRE HUMAN GENETIC THERAPIES, published 2022).

Data set [1] deals with the molecule itself. Briefly: SEC-MALS and analytical ultracentrifugation; self-association (homotrimer).
Data set [2] concerns the molecule itself. The data set can be described thus: X-ray crystal structure; self-association (homotrimer). The protocol:
The crystals (FIG. 8) were obtained from rhNaglu protein purified from culture media treated with mannosidase-I inhibitor, Kifunensine. Naglu Kif contains identical protein sequences as rhNaglu, but different glycosylation pattern. The crystals acquired of Naglu Kif were grown at pH=7.5 and the structure of Naglu Kif was solved at 2.4 Å resolution by X-ray crystallography. Naglu structure (FIG. 9) is identified as having three distinct domains, a N-terminal domain (Domain-I, aa 24-126) followed by a (a/(3)8 barrel domain containing the catalytic glutamates (Domain-II, aa 127-467) and an all helical C-terminal domain (Domain-III, aa 468-743). Similar domain structure has been observed for another Glycoside Hydrolase family-89 protein, cpGH89, a bacterial homolog of Naglu (Ficko-Blean E, et al., PNAS May 6, 2008 vol. 105 no. 18 6560-6565). The active site is at a cleft between domains II and III and the catalytic residues are identified as E316 and E446 located on domain II.

B1: recombinant Naglu-IGFII fusion protein (enzyme)
chain: DEAREAAAVRALVARLLGPGPAADFSVSVERALAAKPGLDTYSLGGGGAARVRVRGSTGVAAAAGLHRYLRDFCGCHVAWSGSQLRLPRPLPAVPGELTEATPNRYRYYQNVCTQSYSFVWWDWARWEREIDWMALNGINLALAWSGQEAIWQRVYLALGLTQAEINEFFTGPAFLAWGRMGNLHTWDGPLPPSWHIKQLYLQHRVLDQMRSFGMTPVLPAFAGHVPEAVTRVFPQVNVTKMGSWGHFNCSYSCSFLLAPEDPIFPIIGSLFLRELIKEFGTDHIYGADTFNEMQPPSSEPSYLAAATTAVYEAMTAVDTEAVWLLQGWLFQHQPQFWGPAQIRAVLGAVPRGRLLVLDLFAESQPVYTRTASFQGQPFIWCMLHNFGGNHGLFGALEAVNGGPEAARLFPNSTMVGTGMAPEGISQNEVVYSLMAELGWRKDPVPDLAAWVTSFAARRYGVSHPDAGAAWRLLLRSVYNCSGEACRGHNRSPLVRRPSLQMNTSIWYNRSDVFEAWRLLLTSAPSLATSPAFRYDLLDLTRQAVQELVSLYYEEARSAYLSKELASLLRAGGVLAYELLPALDEVLASDSRFLLGSWLEQARAAAVSEAEADFYEQNSRYQLTLWGPEGNILDYANKQLAGLVANYYTPRWRLFLEALVDSVAQGIPFQQHQFDKNVFQLEQAFVLSKQRYPSQPRGDTVDLAKKIFLKYYPRWVAGSWGAPGGGGGAAAAAGGGGGGAPGGGGGAAAAAGGGGGGAPGGGGGAAAAAGGGGGGAPLCGGELVDTLQFVCGDRGFYFSRPASRVSRRSRGIVEECCFRSCDLALLETYCATPAKSE
modifications: glycosylated; negative for M6P glycosylation
notes: Secreted from HT1080 cells
As for B1, in data set [1], the binding result was “binds”.

B2: Naglu-Kif (enzyme)
chain: DEAREAAAVRALVARLLGPGPAADFSVSVERALAAKPGLDTYSLGGGGAARVRVRGSTGVAAAAGLHRYLRDFCGCHVAWSGSQLRLPRPLPAVPGELTEATPNRYRYYQNVCTQSYSFVWWDWARWEREIDWMALNGINLALAWSGQEAIWQRVYLALGLTQAEINEFFTGPAFLAWGRMGNLHTWDGPLPPSWHIKQLYLQHRVLDQMRSFGMTPVLPAFAGHVPEAVTRVFPQVNVTKMGSWGHFNCSYSCSFLLAPEDPIFPIIGSLFLRELIKEFGTDHIYGADTFNEMQPPSSEPSYLAAATTAVYEAMTAVDTEAVWLLQGWLFQHQPQFWGPAQIRAVLGAVPRGRLLVLDLFAESQPVYTRTASFQGQPFIWCMLHNFGGNHGLFGALEAVNGGPEAARLFPNSTMVGTGMAPEGISQNEVVYSLMAELGWRKDPVPDLAAWVTSFAARRYGVSHPDAGAAWRLLLRSVYNCSGEACRGHNRSPLVRRPSLQMNTSIWYNRSDVFEAWRLLLTSAPSLATSPAFRYDLLDLTRQAVQELVSLYYEEARSAYLSKELASLLRAGGVLAYELLPALDEVLASDSRFLLGSWLEQARAAAVSEAEADFYEQNSRYQLTLWGPEGNILDYANKQLAGLVANYYTPRWRLFLEALVDSVAQGIPFQQHQFDKNVFQLEQAFVLSKQRYPSQPRGDTVDLAKKIFLKYYPRWVAGSW
modifications: mostly high mannose glycans (produced with Kifunensine in the medium); N-glycans at N261, N272, N435, N503, N526 and N532 (precursor numbering)
notes: This is the protein that was crystallised (2.4 A)
On to B2, for which, in data set [2], the binding result is listed as “binds”.

B3: recombinant human Naglu (enzyme)
chain: DEAREAAAVRALVARLLGPGPAADFSVSVERALAAKPGLDTYSLGGGGAARVRVRGSTGVAAAAGLHRYLRDFCGCHVAWSGSQLRLPRPLPAVPGELTEATPNRYRYYQNVCTQSYSFVWWDWARWEREIDWMALNGINLALAWSGQEAIWQRVYLALGLTQAEINEFFTGPAFLAWGRMGNLHTWDGPLPPSWHIKQLYLQHRVLDQMRSFGMTPVLPAFAGHVPEAVTRVFPQVNVTKMGSWGHFNCSYSCSFLLAPEDPIFPIIGSLFLRELIKEFGTDHIYGADTFNEMQPPSSEPSYLAAATTAVYEAMTAVDTEAVWLLQGWLFQHQPQFWGPAQIRAVLGAVPRGRLLVLDLFAESQPVYTRTASFQGQPFIWCMLHNFGGNHGLFGALEAVNGGPEAARLFPNSTMVGTGMAPEGISQNEVVYSLMAELGWRKDPVPDLAAWVTSFAARRYGVSHPDAGAAWRLLLRSVYNCSGEACRGHNRSPLVRRPSLQMNTSIWYNRSDVFEAWRLLLTSAPSLATSPAFRYDLLDLTRQAVQELVSLYYEEARSAYLSKELASLLRAGGVLAYELLPALDEVLASDSRFLLGSWLEQARAAAVSEAEADFYEQNSRYQLTLWGPEGNILDYANKQLAGLVANYYTPRWRLFLEALVDSVAQGIPFQQHQFDKNVFQLEQAFVLSKQRYPSQPRGDTVDLAKKIFLKYYPRWVAGSW
modifications: glycosylated; lacks mannose-6-phosphate glycan
notes: also called rhNaglu; alpha-N-acetyl-glucosaminidase
For the protein B3, the binding result in data set [1] is on record as “binds”.
